# Results from US20170332622A1, “COMPOSITIONS AND METHODS FOR PRESERVATION AND STORAGE OF BIOLOGICAL MATERIALS” (The University of North Carolina at Charlotte, priority 2016, published 2017).
# Where two headings read alike, the source gives them in different places.
# Key:
# [1] = cited from earlier work
# [2] = Solubility of lysozyme by turbidimetric assay (absorbance at 600 nm); format: physicochemical
# Protocol: Initial solubility studies were performed on the model protein lysozyme in water. Samples having known concentrations were prepared by weighing the lysozyme and adding the appropriate amount of water to get the desired concentration in mg/mL. The samples were gently inverted several times and stored at room temperature for 1 hour to overnight to allow the protein to rehydrate. Solubility limits were determined via turbidimetric assay.
# The samples were then placed in a Biotek Synergy plate reader and absorbance was measured from 200 nm to 900 nm. As FIG. 1 illustrates, lysozyme has a characteristic […] at 280 nm that can be used along with Beer-Lambert's law to measure the concentration, however, for samples above 5 mg/mL, the instrument sensor becomes saturated and the readings are not useful for determining concentration. Therefore, to determine solubility limits, the absorbance at 600 nm was used to indicate the presence of aggregate or particulate in suspension. At this wavelength, far from the characteristic absorbance, any increase in absorbance is an indicator that the protein is not completely in solution. A baseline was established by measuring the absorbance of pure water or TCH solution without any lysozyme. Samples were measured in triplicate and the averages are plotted in the accompanying figures.
# To determine the effect of TCH on the solubility of lysozyme, values for the solubility of lysozyme in TCH formulations as a function of water content were obtained. […] There is a characteristic peak proximate 280 nm that can be used can be used along with Beer-Lambert's law to determine concentrations, however, the spectra is near zero away from this peak.
# [3] = Thermal stability of lysozyme in TCH by differential scanning calorimetry; format: physicochemical
# Protocol: TCH solutions were prepared, water was added, and the water content was measured using Karl Fischer titration until the desired solutions were achieved. Lysozyme was weighed into the container and the appropriate amount of TCH was added to achieve a solution with a concentration of approximately 1 mg/mL. Samples were gently inverted several times and left at room temperature for one hour or overnight to allow the lysozyme to rehydrate and go into solution. Some samples were dried by evaporative drying and rehydrated prior to scanning Another sample of lysozyme in 0.1M sodium acetate buffer pH 4 was prepared for comparison.
# To determine the stability of lysozyme in TCH over time, a set of samples was prepared at stable moisture contents and stored at the appropriate humidity at room temperature for a period of five weeks. These samples were prepared with a protein concentration of 10 mg/mL prior to storage. After five weeks, they were diluted to approximately 1 mg/mL and scanned using differential scanning calorimetry (DSC).
# A Micro-cal VP DSC was used for determining the thermal stability of the protein. A baseline was established by scanning the TCH solution without protein at least three times until repeatability was evident. The TCH solutions used for the baseline scans are identical to the sample solutions, without protein. The baseline scans of the solutions without protein help eliminate noise resultant from variation in the sample cells. […] The concentration of lysozyme in each sample was verified prior to scanning by reading the absorbance at 280 nm on the Biotek Synergy plate reader. […]
# The DSC thermal traces were fit in OriginPro with a non-two-state model that includes an output of both calorimetric enthalpy and Van't Hoff enthalpy, Hv. The calorimetric enthalpy is determined by the area under the curve and depends on the selected baseline as well as the normalized concentration. […] The number of intermediate steps in the unfolding process can be determined by taking the ratio of calorimetric enthalpy to Van't Hoff enthalpy. […]
# [4] = in NaH2PO4; cited from earlier work
Compound,solubility limit ([1]; 10° C.),solubility limit ([1]; 20° C.),water content corresponding to solubility limit ([1]; 20° C.),solubility limit ([1]; 40° C.),"solubility limit, as water content ([1]; pure trehalose) [% water by weight]","solubility ([2]; in TCH 1:4 compositions, all water content levels tested (0.01 to 0.70 grams water per gram dry weight))",solubility (in words) ([2]; in TCH solutions),solubility (no indication of solubility issues up to maximum concentration tested) ([2]; in pure water) [mg/mL],"absorbance at 600 nm ([2]; lysozyme in TCH solutions, each sample measured)","degradation after storage ([3]; five weeks of storage in stable TCH solutions, moisture content and/or humidity controlled, room temperature)","thermal unfolding temperature, stored versus fresh samples ([3]; stored five weeks in TCH, DSC)","thermal unfolding temperature ([3]; versus weight percent of TCH in solution, DSC)",ratio of calorimetric to Van't Hoff enthalpies [4]
OC[C@H]1O[C@H](O[C@H]2O[C@H](CO)[C@@H](O)[C@H](O)[C@H]2O)[C@H](O)[C@@H](O)[C@@H]1O [trehalose],42.3 % (grams trehalose per gram solution),46.6 % (grams trehalose per gram solution),53.4 % (grams water per gram solution),59.7 % (grams trehalose per gram solution),53,–,–,–,–,–,–,–,–
lysozyme,–,–,–,–,–,at least 40 mg/mL,readily soluble,≥ 200,below 0.05,no sign of degradation,slightly higher unfolding temperature,increases with increasing concentrations of TCH,~1
